Series [1] in a line: Circular dichroism spectroscopy (helicity). The following applies: for helicity compared with other designs (CD signal at 222 nm): pH 7, comparator named in the value; for helix content judged by CD spectroscopy: pH 7, 5° C., 100 μM peptide (b86 prints 100 mM). Format: physicochemical. The method, then:
(§1) Circular dichroism spectroscopy. CD measurements were made using a JASCO J-715 spectropolarimeter fitted with a Peltier temperature controller. Peptide solutions were prepared in 25 mM potassium phosphate buffer at pH 7 and were examined in 1 mm or 1 cm quartz cuvettes (with stirring). Spectra were recorded at 5° C. using 1 nm intervals, a 1 nm bandwidth and 4 sec response time. Thermal unfolding curves were recorded through 1° C. min^−1 ramps using a 2 nm bandwidth, averaging the signal for 16 s every 1° C. intervals. After baseline correction, ellipticities in mdeg were converted to molar ellipticities (deg cm^2 dmol-res-^−1) by normalising for the concentration of peptide bonds.
On the technique in general: Circular dichroism is the unequal absorption of left and right circularly polarised light.

The nature of series [2]: Thermal unfolding followed by CD spectroscopy. The format is physicochemical. The following applies: for thermal destabilisation compared with CSP-3o: oxidised forms; for midpoint of thermal unfolding transition, TM: FIG. 3B, concentration not given; for TM of the oxidised state: oxidised form; for TM of the oxidised state / TM of the reduced, dimeric form: ±2 for all three values; for thermal stability in words: comparator named in the value. The method, then:
as §1

Series [3] concerns the molecule itself. Description: sedimentation equilibrium AUC, monomer-dimer fit, pH 7, 5 C (homodimerisation). The method, then: Sedimentation equilibrium experiments were conducted at 5° C. in a Beckman-Optima XL-I analytical ultracentrifuge fitted with an An-60 Ti rotor. A […] peptide solution at […] in 25 mM K phosphate buffer pH 7 containing 0.1 M KCl was equilibrated for 48 h at speeds of 40 000, 47 500/50 000 and 55 000/60 000 rpm. Data were fitted simultaneously assuming either a single ideal species or a monomer-dimer equilibrium and fixed monomer molecular weight, using routines in the Beckman-Optima XL-A/XLI-I data analysis software (v4.0). The molecular weights (Table 2) and partial specific volumes (range 0.7417 to 0.7461) of the peptides were calculated from their amino-acid sequences, and the viscosity of the buffer at 5° C. was taken to be […].

This is an account of results in patent US20060240474A1, “Peptides able to switch between two structural states and their use” (UNIVERSITY OF SUSSEX, priority 2002, published 2006).

Where a SMILES comes first, the peptide text is derived from it. Bridges are numbered along the chain shown (N, C = ends). Roman numbers before positions name the chains, in order. Where no end group is shown, it is not given here. The star is where a group is joined. Cam = NC(=O)C*

For “CGGEIRALKYEIARLKQAKQAEIRALKQEIAALKGGC [CSP-4o] (disulfide 1-37)”, the “helicity compared with other designs (CD signal at 222 nm)” value (“helicity compared with other designs” below) in series [1] is given as “marginally less helical than the parent, CSP-3o”. Moreover, in series [2], the “thermal destabilisation compared with CSP-3o” value was roughly 20 °C. As to “CGGEIRALKYEIARLKQGGGGKKRALEQKIAALEGGC [CSP-2o] (disulfide 1-37)”, in series [1], the “helix content judged by CD spectroscopy” value is roughly 40% and the “helicity compared with other designs” value was “approximately double the helical signal ([θ]222) of the parent peptide”. Also, the “midpoint of thermal unfolding transition, TM” value in series [2] came to 40±2 °C.

Regarding “CGGEIRALKYEIARLKQAKQAKIRALEQKIAALEGGC [CSP-3r]”, the “helicity compared with other designs” value in series [1] is listed as “approximate three-fold improvement in helicity over CSP-2r”. Further, the “midpoint of thermal unfolding transition, TM” value in series [2] was found to be 40±2 °C. In the case of “CGGEIRALKYEIARLKQAKQAEIRALKQEIAALKGGC [CSP-4r]”, the “thermal stability higher than CSP-3r by” value in series [2] (reduced forms) is roughly 8 °C.

`CC[C@H](C)[C@H](NC(=O)[C@H](CCCCN)NC(=O)[C@H](CCC(N)=O)NC(=O)[C@H](CCC(=O)O)NC(=O)[C@H](CC(C)C)NC(=O)[C@H](C)NC(=O)[C@H](CCCNC(=N)N)NC(=O)[C@@H](NC(=O)[C@H](CCCCN)NC(=O)[C@H](C)NC(=O)[C@H](CCC(N)=O)NC(=O)[C@H](CCCCN)NC(=O)[C@H](C)NC(=O)[C@H](CCC(N)=O)NC(=O)[C@H](CCCCN)NC(=O)[C@H](CC(C)C)NC(=O)[C@H](CCCNC(=N)N)NC(=O)[C@H](C)NC(=O)[C@@H](NC(=O)[C@H](CCC(=O)O)NC(=O)[C@H](Cc1ccc(O)cc1)NC(=O)[C@H](CCCCN)NC(=O)[C@H](CC(C)C)NC(=O)[C@H](C)NC(=O)[C@H](CCCNC(=N)N)NC(=O)[C@@H](NC(=O)[C@H](CCC(=O)O)NC(=O)CNC(=O)CNC(=O)[C@@H](N)CS)[C@@H](C)CC)[C@@H](C)CC)[C@@H](C)CC)C(=O)N[C@@H](C)C(=O)N[C@@H](C)C(=O)N[C@@H](CC(C)C)C(=O)N[C@@H](CCC(=O)O)C(=O)NCC(=O)NCC(=O)N[C@@H](CS)C(=O)O` [CSP-3] (H-CGGEIRALKYEIARLKQAKQAKIRALEQKIAALEGGC-OH; N-terminus and C-terminus assumed): in series [2], the “TM of the oxidised state” value was 50 °C and the “TM of the reduced, dimeric form” value worked out at 40 °C. With “CGGEIRALKYEIARLKQAAQAKKRALEQKIAALEGGC [CSP-7o] (disulfide 1-37)”, in series [2], the “thermal stability in words” value is given as “affected less”. Take “CGGKIRALEYKIARLEQAKQAKIRALEQKIAALEGGC [CSP-5o] (disulfide 1-37)”: the “helicity compared with other designs” value in series [1] is given as “marginally less helical than the parent, CSP-3o”. Moreover, the “thermal destabilisation compared with CSP-3o” value in series [2] was roughly 20 °C. “CGGEIRALKYEIARLKQ----KKRALEQKIAALEGGC [CSP-1o] (disulfide I:1-II:16; not fully specified)”: the “helix content judged by CD spectroscopy” value in series [1] is recorded as 20%. Moreover, in series [2], the “thermal stability in words” value is listed as “changed little upon heating”.

In the case of “CGGEIRALKYEIARLKQAAQAKKRALEQKIAALEGGC [CSP-7r]”, the “helicity compared with other designs” value in series [1] is “compromised both the helicity and the thermal stability”. Also, the “thermal stability in words” value in series [2] is “compromised both the helicity and the thermal stability”.

For `CC[C@H](C)[C@H](NC(=O)[C@H](CCCCN)NC(=O)[C@H](CCC(N)=O)NC(=O)[C@H](CCC(=O)O)NC(=O)[C@H](CC(C)C)NC(=O)[C@H](C)NC(=O)[C@H](CCCNC(=N)N)NC(=O)[C@H](CCCCN)NC(=O)[C@H](CCCCN)NC(=O)[C@H](C)NC(=O)[C@H](CCC(N)=O)NC(=O)[C@H](C)NC(=O)[C@H](C)NC(=O)[C@H](CCC(N)=O)NC(=O)[C@H](CCCCN)NC(=O)[C@H](CC(C)C)NC(=O)[C@H](CCCNC(=N)N)NC(=O)[C@H](C)NC(=O)[C@@H](NC(=O)[C@H](CCC(=O)O)NC(=O)[C@H](Cc1ccc(O)cc1)NC(=O)[C@H](CCCCN)NC(=O)[C@H](CC(C)C)NC(=O)[C@H](C)NC(=O)[C@H](CCCNC(=N)N)NC(=O)[C@@H](NC(=O)[C@H](CCC(=O)O)NC(=O)CNC(=O)CNC(=O)[C@@H](N)CS)[C@@H](C)CC)[C@@H](C)CC)C(=O)N[C@@H](C)C(=O)N[C@@H](C)C(=O)N[C@@H](CC(C)C)C(=O)N[C@@H](CCC(=O)O)C(=O)NCC(=O)NCC(=O)N[C@@H](CS)C(=O)O` [CSP-7] (H-CGGEIRALKYEIARLKQAAQAKKRALEQKIAALEGGC-OH; N-terminus and C-terminus assumed), in series [2], the “TM of the oxidised state” value amounted to 53±2 °C and the “TM of the reduced, dimeric form” value came to 34±2 °C. Take “CGGEIRALKYEIARLKQAAQAKIRALEQKIAALEGGC [CSP-6r]”: the “helicity compared with other designs” value in series [1] was “significantly increased over the other hendecad-containing designs CSP-2r and CSP-3r”. This molecule had a TM in series [2] (10 μM peptide) of 61±2 °C. In series [2], the “thermal stability in words” value is “significantly increased over the other hendecad-containing designs CSP-2r and CSP-3r”. As to `CC[C@H](C)[C@H](NC(=O)[C@H](CCCCN)NC(=O)[C@H](CCC(N)=O)NC(=O)[C@H](CCC(=O)O)NC(=O)[C@H](CC(C)C)NC(=O)[C@H](C)NC(=O)[C@H](CCCNC(=N)N)NC(=O)[C@@H](NC(=O)[C@H](CCCCN)NC(=O)[C@H](C)NC(=O)[C@H](CCC(N)=O)NC(=O)[C@H](C)NC(=O)[C@H](C)NC(=O)[C@H](CCC(N)=O)NC(=O)[C@H](CCCCN)NC(=O)[C@H](CC(C)C)NC(=O)[C@H](CCCNC(=N)N)NC(=O)[C@H](C)NC(=O)[C@@H](NC(=O)[C@H](CCC(=O)O)NC(=O)[C@H](Cc1ccc(O)cc1)NC(=O)[C@H](CCCCN)NC(=O)[C@H](CC(C)C)NC(=O)[C@H](C)NC(=O)[C@H](CCCNC(=N)N)NC(=O)[C@@H](NC(=O)[C@H](CCC(=O)O)NC(=O)CNC(=O)CNC(=O)[C@@H](N)CS)[C@@H](C)CC)[C@@H](C)CC)[C@@H](C)CC)C(=O)N[C@@H](C)C(=O)N[C@@H](C)C(=O)N[C@@H](CC(C)C)C(=O)N[C@@H](CCC(=O)O)C(=O)NCC(=O)NCC(=O)N[C@@H](CS)C(=O)O` [CSP-6] (H-CGGEIRALKYEIARLKQAAQAKIRALEQKIAALEGGC-OH; N-terminus and C-terminus assumed), in series [2], the “TM of the oxidised state” value worked out at 47 °C and the “TM of the reduced, dimeric form” value was determined as 75 °C.

Take “CGGEIRALKYEIARLKQGGGGKKRALEQKIAALEGGC [CSP-2r]”: the “helix content judged by CD spectroscopy” value in series [1] is reported as roughly 20%. In addition, the “midpoint of thermal unfolding transition, TM” value in series [2] is 22±2 °C. On to “CGGEIRALKYEIARLKQ----KKRALEQKIAALEGGC [CSP-1r] (not fully specified (some residues); cysteine pairing not given here)”, for which the “helix content judged by CD spectroscopy” value in series [1] was found to be 90%. The “transition midpoint, TM” value in series [2] (10 mM sample (so in the source)) came to 50 °C; in series [2] (100 mM peptide (so in the source)), 62 °C. For “CGGKIRALEYKIARLEQAKQAKIRALEQKIAALEGGC [CSP-5r]”, the “thermal stability lower than the parent (CSP-3r) by” value in series [2] (reduced forms) is 12 °C.

B1: CSP-5r (reduced and alkylated) (peptide)
peptide: C(Cam)GGKIRALEYKIARLEQAKQAKIRALEQKIAALEGGC(Cam)
notes: Anagram mutant of CSP-3 with all g:e pairs Lys:Glu; also called design iteration 5, reduced & alkylated; CSP-6a (Maya's nomenclature)
B1 registered a Kd in series [3] of 72 µM.

B2: CSP-3r (reduced and alkylated) (peptide)
peptide: C(Cam)GGEIRALKYEIARLKQAKQAKIRALEQKIAALEGGC(Cam)
notes: The entry is the monomer chain; the KD is for its monomer-dimer equilibrium; also called CSP-3a; design iteration 3, reduced & alkylated
Regarding B2, the affinity in series [3], expressed as Kd, was 191 µM.

B3: CSP-6r (reduced and alkylated) (peptide)
peptide: C(Cam)GGEIRALKYEIARLKQAAQAKIRALEQKIAALEGGC(Cam)
notes: CSP-3 with the Lys at the h position replaced by Ala; also called design iteration 6, reduced & alkylated; CSP-7a (Maya's nomenclature)
B3 returned a dissociation constant (Kd) in series [3] of 34 µM.

B4: CSP-4r (reduced and alkylated) (peptide)
peptide: C(Cam)GGEIRALKYEIARLKQAKQAEIRALKQEIAALKGGC(Cam)
notes: Anagram mutant of CSP-3 with all g:e pairs Glu:Lys; also called design iteration 4, reduced & alkylated; CSP-5a (Maya's nomenclature)
Regarding B4, in series [3], binding was characterised by a dissociation constant (Kd) of 77 µM.

B5: CSP-7r (reduced and alkylated) (peptide)
peptide: C(Cam)GGEIRALKYEIARLKQAAQAKKRALEQKIAALEGGC(Cam)
notes: CSP-6 with the Ile at the a site after the hendecad unit replaced by Lys; also called design iteration 7, reduced & alkylated; CSP-8a (Maya's nomenclature)
For the molecule B5, the Kd in series [3] was found to be 506 µM.

B6: CSP-1r (Coiled-coil-Switch Peptide-1, reduced and alkylated) (peptide)
peptide: C(Cam)GGEIRALKYEIARLKQKKRALEQKIAALEGGC(Cam)
notes: Synthetic designed peptide; The entry is the monomer chain; the KD is for its monomer-dimer equilibrium (parallel coiled-coil homodimer); also called design iteration 1, reduced & alkylated; CSP-2a (Maya's nomenclature)
In turn, B6 came in with a dissociation constant (Kd) in series [3] of 33 µM.

What is called Kd is the concentration at which binding is half-saturated. A high value points to weaker binding.
